Results reported in patent US20140348819A1, “Methods of Treating Cancer” (Dana-Farber Cancer Institute, Inc., priority 2011, published 2014).

Test system: six V600E BRAF melanoma cell lines
Assay: Screening of recombinant RTK ligands for ability to confer resistance to BRAFi (PLX4720) or MEKi (PD184352) (Table 4)
Assay type: cell-based, human
Set-up: ability of recombinant RTK ligand to confer resistance / ability of recombinant RTK ligand to confer resistance (screening value): scale not given here
Summary of the method: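 Resistance to BRAFi (PLX4720) or MEKi (PD184352) was tested in six V600E BRAF melanoma lines given one of 22 recombinant RTK ligands. For a subset of RTKs, activation was checked by high-throughput tyrosine kinase phosphorylation profiling and western blot.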

B1: Pleiotrophin (protein, UniProt P21246 33-168, looked up)
Pleiotrophin: GKKEKPEKKVKKSDCGEWQWSVCVPTSGDCGLGTREGTRTGAECKQTMKTQRCKIPCNWKKQFGAECKYQFQAWGECDLNTALKTRTGSLKRALHNAECQKTVTISKPCGKLTKPKPQAESKKKKKEGKKQEKMLD
- ability of recombinant RTK ligand to confer resistance (A2058, PD184352 - 1 uM, ligand 3.9 ng/ml): 1.06
- ability of recombinant RTK ligand to confer resistance (A2058, PD184352 - 1 uM, ligand 15.625 ng/ml): 1.07
- ability of recombinant RTK ligand to confer resistance (A2058, PD184352 - 1 uM, ligand 62.5 ng/ml): 1.03
- ability of recombinant RTK ligand to confer resistance (A2058, PD184352 - 1 uM, ligand 250 ng/ml): 1.00
- ability of recombinant RTK ligand to confer resistance (A2058, PD184352 - 1 uM, ligand 1000 ng/ml): 0.87
- ability of recombinant RTK ligand to confer resistance (A2058, PLX4720 - 2 uM, ligand 3.9 ng/ml): 1.03
- ability of recombinant RTK ligand to confer resistance (A2058, PLX4720 - 2 uM, ligand 15.625 ng/ml): 1.04
- ability of recombinant RTK ligand to confer resistance (A2058, PLX4720 - 2 uM, ligand 62.5 ng/ml): 1.04
- ability of recombinant RTK ligand to confer resistance (A2058, PLX4720 - 2 uM, ligand 250 ng/ml): 1.02
- ability of recombinant RTK ligand to confer resistance (A2058, PLX4720 - 2 uM, ligand 1000 ng/ml): 0.93
- ability of recombinant RTK ligand to confer resistance (C32, PD184352 - 1 uM, ligand 3.9 ng/ml): 1.07
- ability of recombinant RTK ligand to confer resistance (C32, PD184352 - 1 uM, ligand 15.625 ng/ml): 1.08
- ability of recombinant RTK ligand to confer resistance (C32, PD184352 - 1 uM, ligand 62.5 ng/ml): 1.07
- ability of recombinant RTK ligand to confer resistance (C32, PD184352 - 1 uM, ligand 250 ng/ml): 1.12
- ability of recombinant RTK ligand to confer resistance (C32, PD184352 - 1 uM, ligand 1000 ng/ml): 0.99
- ability of recombinant RTK ligand to confer resistance (C32, PLX4720 - 2 uM, ligand 3.9 ng/ml): 1.01
- ability of recombinant RTK ligand to confer resistance (C32, PLX4720 - 2 uM, ligand 15.625 ng/ml): 1.04
- ability of recombinant RTK ligand to confer resistance (C32, PLX4720 - 2 uM, ligand 62.5 ng/ml): 0.95
- ability of recombinant RTK ligand to confer resistance (C32, PLX4720 - 2 uM, ligand 250 ng/ml): 0.96
- ability of recombinant RTK ligand to confer resistance (C32, PLX4720 - 2 uM, ligand 1000 ng/ml): 0.87
- ability of recombinant RTK ligand to confer resistance (Colo 829, PD184352 - 1 uM, ligand 3.9 ng/ml): 1.05
- ability of recombinant RTK ligand to confer resistance (Colo 829, PD184352 - 1 uM, ligand 15.625 ng/ml): 0.99
- ability of recombinant RTK ligand to confer resistance (Colo 829, PD184352 - 1 uM, ligand 62.5 ng/ml): 0.99
- ability of recombinant RTK ligand to confer resistance (Colo 829, PD184352 - 1 uM, ligand 250 ng/ml): 0.96
- ability of recombinant RTK ligand to confer resistance (Colo 829, PD184352 - 1 uM, ligand 1000 ng/ml): 0.95
- ability of recombinant RTK ligand to confer resistance (Colo 829, PLX4720 - 2 uM, ligand 3.9 ng/ml): 1.03
- ability of recombinant RTK ligand to confer resistance (Colo 829, PLX4720 - 2 uM, ligand 15.625 ng/ml): 0.96
- ability of recombinant RTK ligand to confer resistance (Colo 829, PLX4720 - 2 uM, ligand 62.5 ng/ml): 0.97
- ability of recombinant RTK ligand to confer resistance (Colo 829, PLX4720 - 2 uM, ligand 250 ng/ml): 0.36
- ability of recombinant RTK ligand to confer resistance (Colo 829, PLX4720 - 2 uM, ligand 1000 ng/ml): 0.98
- ability of recombinant RTK ligand to confer resistance (G-361, PD184352 - 1 uM, ligand 3.9 ng/ml): 0.96
- ability of recombinant RTK ligand to confer resistance (G-361, PD184352 - 1 uM, ligand 15.625 ng/ml): 0.96
- ability of recombinant RTK ligand to confer resistance (G-361, PD184352 - 1 uM, ligand 62.5 ng/ml): 0.97
- ability of recombinant RTK ligand to confer resistance (G-361, PD184352 - 1 uM, ligand 250 ng/ml): 0.92
- ability of recombinant RTK ligand to confer resistance (G-361, PD184352 - 1 uM, ligand 1000 ng/ml): 0.92
- ability of recombinant RTK ligand to confer resistance (G-361, PLX4720 - 2 uM, ligand 3.9 ng/ml): 1.04
- ability of recombinant RTK ligand to confer resistance (G-361, PLX4720 - 2 uM, ligand 15.625 ng/ml): 0.97
- ability of recombinant RTK ligand to confer resistance (G-361, PLX4720 - 2 uM, ligand 62.5 ng/ml): 0.94
- ability of recombinant RTK ligand to confer resistance (G-361, PLX4720 - 2 uM, ligand 250 ng/ml): 0.94
- ability of recombinant RTK ligand to confer resistance (G-361, PLX4720 - 2 uM, ligand 1000 ng/ml): 1.00
- ability of recombinant RTK ligand to confer resistance (SK-MEL-5, PD184352 - 1 uM, ligand 3.9 ng/ml): 0.93
- ability of recombinant RTK ligand to confer resistance (SK-MEL-5, PD184352 - 1 uM, ligand 15.625 ng/ml): 1.00
- ability of recombinant RTK ligand to confer resistance (SK-MEL-5, PD184352 - 1 uM, ligand 62.5 ng/ml): 1.02
- ability of recombinant RTK ligand to confer resistance (SK-MEL-5, PD184352 - 1 uM, ligand 250 ng/ml): 1.08
- ability of recombinant RTK ligand to confer resistance (SK-MEL-5, PD184352 - 1 uM, ligand 1000 ng/ml): 1.11
- ability of recombinant RTK ligand to confer resistance (SK-MEL-5, PLX4720 - 2 uM, ligand 3.9 ng/ml): 0.92
- ability of recombinant RTK ligand to confer resistance (SK-MEL-5, PLX4720 - 2 uM, ligand 15.625 ng/ml): 0.89
- ability of recombinant RTK ligand to confer resistance (SK-MEL-5, PLX4720 - 2 uM, ligand 62.5 ng/ml): 0.95
- ability of recombinant RTK ligand to confer resistance (SK-MEL-5, PLX4720 - 2 uM, ligand 250 ng/ml): 1.07
- ability of recombinant RTK ligand to confer resistance (SK-MEL-5, PLX4720 - 2 uM, ligand 1000 ng/ml): 0.97
- ability of recombinant RTK ligand to confer resistance (SK-MEL-28, PD184352 - 1 uM, ligand 3.9 ng/ml): 1.11
- ability of recombinant RTK ligand to confer resistance (SK-MEL-28, PD184352 - 1 uM, ligand 15.625 ng/ml): 0.98
- ability of recombinant RTK ligand to confer resistance (SK-MEL-28, PD184352 - 1 uM, ligand 62.5 ng/ml): 0.93
- ability of recombinant RTK ligand to confer resistance (SK-MEL-28, PD184352 - 1 uM, ligand 250 ng/ml): 1.02
- ability of recombinant RTK ligand to confer resistance (SK-MEL-28, PD184352 - 1 uM, ligand 1000 ng/ml): 0.87
- ability of recombinant RTK ligand to confer resistance (SK-MEL-28, PLX4720 - 2 uM, ligand 3.9 ng/ml): 1.04
- ability of recombinant RTK ligand to confer resistance (SK-MEL-28, PLX4720 - 2 uM, ligand 15.625 ng/ml): 0.95
- ability of recombinant RTK ligand to confer resistance (SK-MEL-28, PLX4720 - 2 uM, ligand 62.5 ng/ml): 0.95
- ability of recombinant RTK ligand to confer resistance (SK-MEL-28, PLX4720 - 2 uM, ligand 250 ng/ml): 0.96
- ability of recombinant RTK ligand to confer resistance (SK-MEL-28, PLX4720 - 2 uM, ligand 1000 ng/ml): 0.89
